Laboratory results reported in the supplement of paper PMC9170038.

Test system: MS2 coat protein
Assay: apparent KD of MS2 coat protein; designed switch direction (-1 OFF switch, 1 ON switch): -1; higher = weaker reporter binding
Procedure, shortened: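 Designed RNA switches with common flanks were transcribed on Illumina chips by stalled E. coli RNA polymerase and titrated with SNAP-549-labelled MS2 coat protein, from 0.7 or 1.5 nM doubling to 3 µM, in Tris-HCl pH 7.5 buffer with KCl, MgCl2, BSA, DTT, tRNA and Tween-20. Steps lasted 0.8–1.5 h (lowest) to 10–20 min (highest). Titrations ran without input, with 200 uM small-molecule ligand, or with an oligonucleotide input. Normalised cluster fluorescence was curve-fitted, and apparent KD is the per-design median over clusters.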

[1] = input ligand: microRNA oligo, concentration not stated
[2] = Eterna round: R95, input ligand: microRNA oligo, concentration not stated
[3] = Eterna round: R95, input ligand: FMN 200 uM
[4] = Eterna round: R95, input ligand: none

Sequence	apparent KD of MS2 coat protein (input ligand: FMN 200 uM) [µM]	apparent KD of MS2 coat protein (input ligand: none) [µM]	apparent KD of MS2 coat protein [2] [µM]	other results
GCAGCGUAUGUAGGAUAUCGGUCAGUUUCUGAUCGAGAAGGACAUGAGGAUCACCCAUGUAUAUUCCGUCGUGAGACGGGCUGC [JL ENG1 3.69] (Eterna round: R96, puzzle: Exclusion NG 1)	0.0236	0.0184		apparent KD of MS2 coat protein [1]: 0.0143 µM
AAUCCACAUGAGGAUCACCCAUGUCAGGAUAUCGCGCGCGCGUUUUCGGUCUCGCGCGCGAGAAGGGACGGCUG (puzzle: Exclusion 1)			0.022	
GUGUACGGAGGAUAUAUGUGGGCAGCAUACGCUGCAGCUUCACAUGAGGAUCACCCAUGUAGAAGGCUGUGCAC [JL-ex2-2.11 Brourd mod] (puzzle: Exclusion 2)			0.0201	
AGUACUAACACGCAAGUGUUAGUACAAUAAGCUUGUGAAACAUGAGGAUCACCCAUGUCCUCAUAAGCUCGUCUUAU [salish99_TOv2_r3_027] (puzzle: Sensor v3, turn-off variant 2)			0.49	apparent KD of MS2 coat protein [3]: 0.0162 µM; apparent KD of MS2 coat protein [4]: 0.0165 µM
UAAUAUCUGCAGGAUAUCGGUGGAGCACACGUAUGAGAAGGGCAGACAUGAGGAUCACCCAUGUAUAGGGUCCG [BotMod 3 - Jieux - Exclusion 6] (Eterna round: R97, puzzle: Exclusion 6)	0.136	0.0377		
CAGUACUGAGGAUAUACAUGAGGAUCACCCAUGUGGUUUAGUGCACGCGUACGUGUACGUAGAAGGCAGUACUG [JL 3.27 m8] (Eterna round: R97, puzzle: Exclusion 3)	0.0783	0.0189		
UAUAUAUAGUAAGGAUAUGUAUUAAAUUUAUAAACAGAAGGUACUGACAUGAGGAUCACCCAUGUUUUAGUGUGGGCAUGUAGA [JMF's solution 75] (Eterna round: R96, puzzle: Exclusion NG 1)				apparent KD of MS2 coat protein [1]: 0.069 µM
AUGCUCCGUGUAGGAUAUCGCCGUACCACUCGGCGAGAAGGACAUGAGGAUCACCCAUGUAUGUUAUUAUCACGUGUGGCGCGC [Design 50] (Eterna round: R96, puzzle: Exclusion NG 1)	0.046	0.0205		apparent KD of MS2 coat protein [1]: 0.0129 µM
GAAAAGGUAGGAUAUACGAAAAAAAAGGGUAGAAAAAAUACACAUGAGGAUCACCCAUGUAGAAGGACCAAAAG [salish99_ex2_r3_073] (Eterna round: R96, puzzle: Exclusion 2)				apparent KD of MS2 coat protein [1]: 0.0267 µM
GAGUGGCAAGGAUAUACAGAGGAGAGGAAGGCAAGAGGUGGACAUGAGGAUCACCCAUGUAGAAGGUGCAGAGG [JR_Exclu2_Sub025] (puzzle: Exclusion 2)			0.134	apparent KD of MS2 coat protein [3]: 0.157 µM; apparent KD of MS2 coat protein [4]: 0.288 µM
GUAUAGUGAGUCAGGAUAUUAGAGGACCAGUUUCCUAAGAAGGGACAUGAGGAUCACCCAUGUGCAUAGGACGU [Eternabot (Original) Solution 20] (Eterna round: R97, puzzle: Brourd's mod of Exclusion 4)	0.0207	0.023		
AAAAAGAUAGGAUAUACAAUAAAAUAAAAUAAAAUAAAUACACAUGAGGAUCACCCAUGUAGAAGGAUCGAAAA [Exclusion 2 #1] (puzzle: Exclusion 2)			0.025	apparent KD of MS2 coat protein [3]: 0.0266 µM; apparent KD of MS2 coat protein [4]: 0.0312 µM
CUAGGGCACAAUUAAACACCCUAACAUGAGGAUCACCCAUGUCAGGAUAUGUAGGCAAAGACCCUACAGAAGGGACAUGUCCUA [Laus] (Eterna round: R96, puzzle: Exclusion NG 3)	0.0211	0.0152		apparent KD of MS2 coat protein [1]: 0.00938 µM
ACGGACUGAGGAUAUGCAUGCAGGAUACCUUAGUCCAAGGGACAUGAGGAUCACCCAUGUAGAAGGCGGAAAUA [Riedzaanor] (Eterna round: R97, puzzle: Exclusion 2)	0.0261	0.0265		
AAAACAAACUUUUUGCUCGUCUUAUAUGACGCUCGAGUCACAUGAGGAUCACCCAUGUCUUCCUGUUUGAUAGUUGA [JR_SV3TOV2_Sub055] (puzzle: Sensor v3, turn-off variant 2)			0.113	apparent KD of MS2 coat protein [3]: 0.113 µM; apparent KD of MS2 coat protein [4]: 0.142 µM
ACUUAUUGAGGAUAUACAGAUUAUUACAUGAGGAUCACCCAUGUUCUUCAAUGUAUAUAUGUAGAAGGCAGAAGAA [JL-ex5-4.25 Malcolm mod] (Eterna round: R97, puzzle: Exclusion 5)	0.179	0.0567		

Sequence	apparent KD of MS2 coat protein (input ligand: FMN 200 uM) [µM]	apparent KD of MS2 coat protein (input ligand: none) [µM]	apparent KD of MS2 coat protein [2] [µM]	other results
ACAAGCUUUUAGAUUUUCAACAUGAGGAUCACCCAUGUUCGUCUUAUGCUAGUGCUAGUGCGGUGUACUGGUAUUAG [JL TOV1 3.80 sellena mod] (Eterna round: R97, puzzle: Sensor, turn-off variant 1)	0.0169	0.016		
UUUUUCUGUGUGAGGAUAUACUUUGUUUGGUCGUUGUAGAAGGCACAUGAGGAUCACCCAUGUAGUUUGUUGUG [JR_BME4_Sub013] (puzzle: Brourd's mod of Exclusion 4)			0.023	
GCAAGCUUUUUGCGUAGGAACAUGAGGAUCACCCAUGUGCAUGGAAAGAUGGGAAAGAAAGGAGAGAAAGAUGAAAG [Alacar 1] (Eterna round: R97, puzzle: Sensor, turn-off variant 1)	0.101	0.0881		
CAUGUCUGAGGAUAUCGUUUUUUGUACAUGAGGAUCACCCAUGUCCUAUUUUUUUUAUUUCGAGAAGGCAGUGUAU [JR_E5_Sub092] (puzzle: Exclusion 5)			0.0326	
AUUAUGUCAGGAUAUCAGUAGUAAAAAAAAAAAAUUACUACUGAGAAGGGACAUGAGGAUCACCCAUGUCAAAA [EX4 308: Super Stable 8] (Eterna round: R96, puzzle: Exclusion 4)				apparent KD of MS2 coat protein [1]: 0.0213 µM
UCCCGGGUAGGAUAUGCUAGGGUAUGUUCACUUGAUUUAGGACAUGAGGAUCACCCAUGUAGAAGGGCCCGUCG [Eternabot (L1) Solution 25] (Eterna round: R97, puzzle: Exclusion 2)	0.286	0.459		
GCUGCUAGAGGAUAUACAUGAGGAUCACCCAUGUGAAAUUAUAGUGAGGAAAUGAAAAGUAGAAGGCUAGUAGA [Mod of Mat 16 - Jieux - Exclusion 3] (Eterna round: R97, puzzle: Exclusion 3)	0.381	0.0362		
GGCGGACAUGAGGAUCACCCAUGUAAGGAUAUUAGGCGAUCGUCGAUAGACGAUAGCCUGAGAAGGUACGCGCC [Mat - Exclusion 1 - Eli Mod - D14] (Eterna round: R97, puzzle: Exclusion 1)	0.0186	0.0171		
AAUAACAAGCAGAUCCUAAACAUGAGGAUCACCCAUGUGCUCGUCUUGUAAAGUACUAUCACGAAAGUGAUAGUACA [Sensor 3, v1 - 59] (puzzle: Sensor v3, turn-off variant 1)			0.186	apparent KD of MS2 coat protein [3]: 0.0675 µM; apparent KD of MS2 coat protein [4]: 0.0765 µM
UUAAUUCUGAUUCUUGAAAUACAUGAGGAUCACCCAUGUUCACAGGAUAUUGAUUAUGGUAGUAACAAGAAGGGUGUAUCAUAU [JR_ExcNG3_Sub039] (Eterna round: R96, puzzle: Exclusion NG 3)				apparent KD of MS2 coat protein [1]: 0.0648 µM
CUUUUGUGAGGAUAUUAUUAGUAAAUAAAUAAAAUUACUACUGAGAAGGCACAUGAGGAUCACCCAUGUUCCUC [salish99_ex4_r3_048] (puzzle: Exclusion 4)			0.0288	
CUUUUGUGAGGAUAUCAGUAGUAAUACAAUAGUAUUACUACUGAGAAGGCACAUGAGGAUCACCCAUGUUCUUC [Ex4 344 Omei mod 2] (puzzle: Exclusion 4)			0.0232	
GAAAAGAACGAGGAUAUGUUGGUGCAUACACUUGCAGAAGGCGUUACUUGAGGAUCACCCAAGUGAGACCGAGU [Cetelege] (Eterna round: R97, puzzle: Exclusion 6)	0.273	0.124		
AUAAAGUCAGGAUAUCGAAGUGAGUGGAGAGGAGGGAGGUACGAGAAGGGACAUGAGGAUCACCCAUGUAGGAA [JR_Exclusion4)Sub006] (puzzle: Exclusion 4)			0.0242	apparent KD of MS2 coat protein [3]: 0.0255 µM; apparent KD of MS2 coat protein [4]: 0.0219 µM
UCGACGUAAGGAUAUAUAAGGAACGAAGUAAGUUGUAGAAAAUAGAAGGUACAUGAGGAUCACCCAUGUUAAGA [JR_Exclu4_Sub061] (puzzle: Exclusion 4)			0.0196	apparent KD of MS2 coat protein [3]: 0.0194 µM; apparent KD of MS2 coat protein [4]: 0.0189 µM
UAUCGGGACUGAGGAUAUUCGUUCGAACACGAAGAAGAAGGUAGUGUCAGGGACAUGAGGAUCACCCAUGUGAACUCAGUCCUA [JL ViennaUCT Erinle mod] (Eterna round: R96, puzzle: Exclusion NG 1)	0.0383	0.0383		apparent KD of MS2 coat protein [1]: 0.0337 µM
